Test results taken from patent US20260085338.

Biological target: T7 RNA polymerase, P00573
Sequence (P00573 whole entry): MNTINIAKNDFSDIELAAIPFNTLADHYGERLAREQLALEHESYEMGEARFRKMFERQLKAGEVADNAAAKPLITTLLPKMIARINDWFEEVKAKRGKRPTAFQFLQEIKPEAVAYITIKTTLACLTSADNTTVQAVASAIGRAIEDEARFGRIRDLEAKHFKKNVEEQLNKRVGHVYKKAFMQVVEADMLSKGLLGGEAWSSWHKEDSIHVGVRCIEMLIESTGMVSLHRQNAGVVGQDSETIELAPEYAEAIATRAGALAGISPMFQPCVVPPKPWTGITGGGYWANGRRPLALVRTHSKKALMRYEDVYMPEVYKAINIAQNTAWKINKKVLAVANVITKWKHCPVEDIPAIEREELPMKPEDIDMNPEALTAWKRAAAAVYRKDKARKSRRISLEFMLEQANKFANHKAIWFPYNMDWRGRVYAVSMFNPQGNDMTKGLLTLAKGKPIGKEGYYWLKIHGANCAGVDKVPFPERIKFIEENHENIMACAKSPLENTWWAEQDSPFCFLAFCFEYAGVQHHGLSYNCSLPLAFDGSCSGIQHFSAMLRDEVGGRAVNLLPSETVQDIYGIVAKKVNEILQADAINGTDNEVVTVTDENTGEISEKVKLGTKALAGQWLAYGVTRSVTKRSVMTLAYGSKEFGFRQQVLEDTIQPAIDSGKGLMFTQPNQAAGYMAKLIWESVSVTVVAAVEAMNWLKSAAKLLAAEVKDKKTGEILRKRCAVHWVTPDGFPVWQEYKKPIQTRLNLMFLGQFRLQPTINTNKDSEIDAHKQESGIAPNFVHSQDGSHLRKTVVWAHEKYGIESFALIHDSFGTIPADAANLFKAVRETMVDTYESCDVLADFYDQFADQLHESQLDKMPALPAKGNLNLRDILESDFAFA

B1: T7 lysozyme (protein)
chain: MARVQFKQRESTDAIFVHCSATKPSQNVGVREIRQWHKEQGWLDVGYHFIIKRDGTVEAGRDEMAVGSHAKGYNHNSIGVCLVGGIDDKGKFDANFTPAQMQSLRSLLVTLLAKYEGAVLRAHHEVAPKACPSFDLKRWWEKNELVTSDRG
  reduction of msfGFP output upon lysozyme induction (P. putida, 4 mM Rha): T7 (-79%)
